Assay results reported in article doi:10.1101/2020.07.10.197400 (bioRxiv, 2020).

How the values were obtained:
[1] = molecular target: Trx-kindlin2_F2 (residues 260 – 572) without PH domain (mouse); assay: SEC-MALS
SEC-MALS = molecular target: the molecule itself; assay: SEC-MALS

Trx-kindlin2_F2 (residues 260 – 572) without PH domain (domain or fragment)
stoichiometry N [1]: 2

B1: GCN4-tetramerized β1-integrin tail (domain or fragment)
chain: MKQIEDKLEEILSKLYHIENELARIKKLLGERIIHDRREFAKFEKEKMNAKWDTGENPIYKSAVTTVVNPKYEGK
stoichiometry N (SEC-MALS): 4
